# From paper PMC10415149, “The role of catalytic and regulatory domains of human PrimPol in DNA binding and synthesis”
# T1: PrimPol363-560 (CTD) (Homo sapiens, UniProt Q96LW4 363-560)
# T1 sequence: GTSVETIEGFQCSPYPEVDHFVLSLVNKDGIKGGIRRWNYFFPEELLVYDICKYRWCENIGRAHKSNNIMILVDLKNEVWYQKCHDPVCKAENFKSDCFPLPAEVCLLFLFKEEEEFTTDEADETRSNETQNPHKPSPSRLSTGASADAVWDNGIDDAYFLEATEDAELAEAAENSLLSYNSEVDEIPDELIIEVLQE
# T2: PrimPol1-363 (NTD) (Homo sapiens, UniProt Q96LW4 1-363)
# T2 sequence: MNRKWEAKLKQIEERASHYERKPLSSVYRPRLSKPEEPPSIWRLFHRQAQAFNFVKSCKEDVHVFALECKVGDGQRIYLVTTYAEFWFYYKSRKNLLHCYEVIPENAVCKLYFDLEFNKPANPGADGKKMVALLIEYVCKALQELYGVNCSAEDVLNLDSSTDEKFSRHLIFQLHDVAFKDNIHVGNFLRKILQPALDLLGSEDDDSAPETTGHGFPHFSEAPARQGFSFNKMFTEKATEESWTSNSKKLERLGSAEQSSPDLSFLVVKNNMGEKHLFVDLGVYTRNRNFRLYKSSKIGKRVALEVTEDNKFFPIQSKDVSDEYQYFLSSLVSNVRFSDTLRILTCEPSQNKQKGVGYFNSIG
# T3: PrimPol1-363 (NTD);PrimPol363-560 (CTD) (Homo sapiens;Homo sapiens, UniProt Q96LW4;Q96LW4 1-363;363-560, |)
# T3 sequence 1: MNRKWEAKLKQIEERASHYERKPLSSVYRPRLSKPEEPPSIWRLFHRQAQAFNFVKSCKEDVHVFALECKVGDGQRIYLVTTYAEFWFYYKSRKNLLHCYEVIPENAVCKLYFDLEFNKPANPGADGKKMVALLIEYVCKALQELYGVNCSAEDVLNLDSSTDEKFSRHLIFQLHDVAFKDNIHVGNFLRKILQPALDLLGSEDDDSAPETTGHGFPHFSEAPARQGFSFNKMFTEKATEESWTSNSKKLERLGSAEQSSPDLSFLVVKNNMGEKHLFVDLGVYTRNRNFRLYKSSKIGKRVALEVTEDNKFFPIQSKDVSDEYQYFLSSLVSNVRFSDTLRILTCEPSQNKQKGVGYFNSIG
# T3 sequence 2: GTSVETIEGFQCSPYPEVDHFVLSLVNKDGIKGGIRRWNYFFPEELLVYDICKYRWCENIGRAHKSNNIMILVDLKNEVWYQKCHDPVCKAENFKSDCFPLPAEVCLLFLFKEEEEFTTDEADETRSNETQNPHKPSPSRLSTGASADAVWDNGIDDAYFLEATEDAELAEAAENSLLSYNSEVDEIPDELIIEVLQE
# T4: PrimPol1-475 (RBM deleted) (Homo sapiens, UniProt Q96LW4 1-475)
# T4 sequence: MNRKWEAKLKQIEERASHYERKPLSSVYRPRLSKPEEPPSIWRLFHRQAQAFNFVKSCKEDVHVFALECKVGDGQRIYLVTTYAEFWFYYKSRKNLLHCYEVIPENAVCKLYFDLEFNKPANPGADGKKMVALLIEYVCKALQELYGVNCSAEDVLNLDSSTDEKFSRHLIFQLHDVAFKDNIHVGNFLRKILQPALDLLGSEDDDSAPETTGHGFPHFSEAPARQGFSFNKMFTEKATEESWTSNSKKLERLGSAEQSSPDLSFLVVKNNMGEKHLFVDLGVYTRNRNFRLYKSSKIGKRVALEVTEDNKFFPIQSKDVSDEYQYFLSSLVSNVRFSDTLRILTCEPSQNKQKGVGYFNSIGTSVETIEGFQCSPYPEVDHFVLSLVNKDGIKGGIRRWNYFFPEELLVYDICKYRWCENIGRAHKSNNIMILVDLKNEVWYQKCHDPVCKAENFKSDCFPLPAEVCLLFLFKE
# T5: PrimPol WT (Homo sapiens, UniProt Q96LW4 1-560)
# T5 sequence: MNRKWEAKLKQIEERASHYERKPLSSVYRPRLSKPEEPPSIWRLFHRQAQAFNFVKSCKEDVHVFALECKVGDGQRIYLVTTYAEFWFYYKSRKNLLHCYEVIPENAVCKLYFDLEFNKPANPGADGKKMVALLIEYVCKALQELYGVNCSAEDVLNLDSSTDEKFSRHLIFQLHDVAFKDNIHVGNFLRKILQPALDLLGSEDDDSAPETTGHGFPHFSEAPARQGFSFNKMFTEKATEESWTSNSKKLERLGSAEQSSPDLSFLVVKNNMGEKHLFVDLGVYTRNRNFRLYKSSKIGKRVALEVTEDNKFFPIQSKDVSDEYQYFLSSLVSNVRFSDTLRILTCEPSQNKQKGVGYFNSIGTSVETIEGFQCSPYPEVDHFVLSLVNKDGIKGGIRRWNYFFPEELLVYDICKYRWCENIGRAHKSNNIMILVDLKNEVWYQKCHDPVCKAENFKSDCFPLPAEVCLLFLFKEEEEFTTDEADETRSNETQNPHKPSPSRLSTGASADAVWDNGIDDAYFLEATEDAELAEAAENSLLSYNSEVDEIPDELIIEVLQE
# Assays:
# [1] = molecular target: T1, PrimPol363-560 (CTD); assay: EMSA; 1 mM Mn2+, 1-3 uM protein; EMSA: 40 mM HEPES pH 7.0, 50 mM KCl, 1 mM DTT, 5% glycerol, 0.1 mg/ml BSA, 1 mM MnCl2, 300 nM DNA, 24 C 20 min then ice (RPA assays: 50 nM DNA, 25 nM RPA, 8 C); 5% native PAGE, 0.5x Tris-glycine pH 8.3, 4 C; conditions: protein: recombinant; tags: N-terminal SUMO-HIS10; label: 5' Cy5
# [2] = molecular target: T2, PrimPol1-363 (NTD); assay: as above; conditions: protein: recombinant; tags: N-terminal SUMO-HIS10; label: 5' Cy5
# [3] = molecular target: T3, PrimPol1-363 (NTD);PrimPol363-560 (CTD); assay: EMSA; 1 mM Mn2+; separate NTD and CTD mixed; EMSA: 40 mM HEPES pH 7.0, 50 mM KCl, 1 mM DTT, 5% glycerol, 0.1 mg/ml BSA, 1 mM MnCl2, 300 nM DNA, 24 C 20 min then ice (RPA assays: 50 nM DNA, 25 nM RPA, 8 C); 5% native PAGE, 0.5x Tris-glycine pH 8.3, 4 C; conditions: protein: recombinant;recombinant, tags: N-terminal SUMO-HIS10;N-terminal SUMO-HIS10, copies: 1;1
# [4] = molecular target: T4, PrimPol1-475 (RBM deleted); assay: EMSA; 1 mM Mn2+; EMSA: 40 mM HEPES pH 7.0, 50 mM KCl, 1 mM DTT, 5% glycerol, 0.1 mg/ml BSA, 1 mM MnCl2, 300 nM DNA, 24 C 20 min then ice (RPA assays: 50 nM DNA, 25 nM RPA, 8 C); 5% native PAGE, 0.5x Tris-glycine pH 8.3, 4 C; conditions: protein: recombinant; tags: N-terminal SUMO-HIS10; label: Cy5 at 5' of template; template 5' overhang 1 nt, 3' overhang 11 nt
# [5] = molecular target: T5, PrimPol WT; assay: as above; conditions: protein: recombinant; tags: N-terminal SUMO-HIS10; label: Cy5 at 5' of template; template 5' overhang 1 nt, 3' overhang 11 nt
# [6] = molecular target: T4, PrimPol1-475 (RBM deleted); assay: EMSA; 1 mM Mn2+, 1 mM ATP, 200 uM dNTPs, 8 C; EMSA: 40 mM HEPES pH 7.0, 50 mM KCl, 1 mM DTT, 5% glycerol, 0.1 mg/ml BSA, 1 mM MnCl2, 300 nM DNA, 24 C 20 min then ice (RPA assays: 50 nM DNA, 25 nM RPA, 8 C); 5% native PAGE, 0.5x Tris-glycine pH 8.3, 4 C; conditions: protein: recombinant; tags: N-terminal SUMO-HIS10; label: 32P
# [7] = molecular target: T5, PrimPol WT; assay: as above; conditions: protein: recombinant; tags: N-terminal SUMO-HIS10; label: 32P
# [8] = molecular target: PrimPol WT;RPA (Homo sapiens;Homo sapiens, UniProt Q96LW4;P27694;P15927;P35244 1-560;1-616;1-270;1-121, |); assay: EMSA; PrimPol added to preformed RPA:DNA; 1 mM Mn2+, ATP, dNTPs, 8 C; EMSA: 40 mM HEPES pH 7.0, 50 mM KCl, 1 mM DTT, 5% glycerol, 0.1 mg/ml BSA, 1 mM MnCl2, 300 nM DNA, 24 C 20 min then ice (RPA assays: 50 nM DNA, 25 nM RPA, 8 C); 5% native PAGE, 0.5x Tris-glycine pH 8.3, 4 C; conditions: protein: recombinant;recombinant; tags: N-terminal SUMO-HIS10;; copies: 1;1;1;1; label: 32P
# Sequence of PrimPol WT;RPA (P27694 whole entry, chain 2 of 3): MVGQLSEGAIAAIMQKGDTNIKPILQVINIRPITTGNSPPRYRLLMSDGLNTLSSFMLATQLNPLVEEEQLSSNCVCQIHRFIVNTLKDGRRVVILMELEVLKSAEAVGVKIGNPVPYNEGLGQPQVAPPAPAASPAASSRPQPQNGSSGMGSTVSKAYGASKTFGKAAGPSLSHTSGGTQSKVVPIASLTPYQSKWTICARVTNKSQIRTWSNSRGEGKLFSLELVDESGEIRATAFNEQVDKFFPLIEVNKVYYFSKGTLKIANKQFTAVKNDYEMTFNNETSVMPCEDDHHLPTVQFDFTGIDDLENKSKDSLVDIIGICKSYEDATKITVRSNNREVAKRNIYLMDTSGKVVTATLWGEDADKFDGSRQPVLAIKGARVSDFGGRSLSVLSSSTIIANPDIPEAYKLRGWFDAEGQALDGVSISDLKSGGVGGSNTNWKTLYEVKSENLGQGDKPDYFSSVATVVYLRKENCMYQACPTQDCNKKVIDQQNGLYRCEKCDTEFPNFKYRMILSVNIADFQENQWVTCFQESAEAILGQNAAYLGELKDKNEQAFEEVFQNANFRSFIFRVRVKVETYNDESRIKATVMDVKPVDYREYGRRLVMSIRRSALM
# Sequence of PrimPol WT;RPA (P15927 whole entry, chain 3 of 3): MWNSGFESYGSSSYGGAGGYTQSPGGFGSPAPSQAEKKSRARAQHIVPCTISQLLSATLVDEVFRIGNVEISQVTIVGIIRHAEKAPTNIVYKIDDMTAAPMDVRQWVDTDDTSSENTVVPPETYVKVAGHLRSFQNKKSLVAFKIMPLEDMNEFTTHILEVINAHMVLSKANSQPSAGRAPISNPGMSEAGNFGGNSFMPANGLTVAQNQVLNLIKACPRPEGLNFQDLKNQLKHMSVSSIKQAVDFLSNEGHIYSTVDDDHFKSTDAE
# Sequence of PrimPol WT;RPA (P35244 whole entry, chain 4 of 3): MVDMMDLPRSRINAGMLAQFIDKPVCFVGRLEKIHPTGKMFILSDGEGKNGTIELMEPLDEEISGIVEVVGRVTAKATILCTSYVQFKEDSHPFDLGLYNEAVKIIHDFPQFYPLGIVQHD
binder,measurement,setting,value
AAAAAAAAAACCTGAAAAAAAAAA (ssDNA) [Cy5-Acctg24],binding result,[1],no binding
same,binding result,[2],binds
same,binding result,[3]; label: 5' Cy5,no binding
"p-p-p-12/Cy5-Acctg24 (mixed, primer 5'-triphosphate; primer nt 1 is ribo-A, rest DNA) DNA 1: AAAAAAAAAACCTGAAAAAAAAAA DNA 2: AGGTTTTTTTTT",Kd,[4],90 ± 10 nM
same,Kd,[5],490 ± 130 nM
Template-55/Primer-18 (dsDNA) DNA 1: GACTACATTTCATCTGGCTTGGGCTTCATCGTTGTCGCAGACCTGGTGGATACCG DNA 2: CGGTATCCACCAGGTCTG,binding result,"[3]; label: 5' 32P on Primer-18, template 5' overhang 37 nt",binds
Acctg55 (ssDNA) DNA: AAAAAAAAAAAAAAAAAAAAAAAAAAAAAAAAAAAAAAAAACCTGAAAAAAAAAA,binding result,[6],binds
same,binding result,[7],binds
same,binding result,[8],binds
